Measured values: paper doi:10.1101/2022.04.12.487901 (bioRxiv, 2022)
Substitutions are numbered along the chain they refer to. Values belong to the binder of their own block, whether it stands above or below them.

Columns and labels:
cryo-EM structure = molecular target: the molecule itself; assay: cryo-EM structure
[1] = molecular target: T1, CHMP3 full length (residues 1-222) (human, UniProt Q9Y3E7 1-222); assay: cryo-EM structure
T1 sequence (looked up): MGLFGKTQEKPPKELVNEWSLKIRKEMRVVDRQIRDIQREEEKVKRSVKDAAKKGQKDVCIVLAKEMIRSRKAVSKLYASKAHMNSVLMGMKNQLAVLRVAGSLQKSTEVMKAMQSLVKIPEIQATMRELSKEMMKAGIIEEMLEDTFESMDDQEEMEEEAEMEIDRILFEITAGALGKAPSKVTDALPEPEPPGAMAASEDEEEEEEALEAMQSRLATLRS

[2] = molecular target: T1, CHMP3 full length (residues 1-222); assay: negative staining EM of polymer
[3] = molecular target: T2, CHMP3_K112A, K119A, K132A, K136A (human, UniProt Q9Y3E7 9-183, K112A | K119A | K132A | K136A); assay: negative staining EM of polymer
T2 sequence (looked up): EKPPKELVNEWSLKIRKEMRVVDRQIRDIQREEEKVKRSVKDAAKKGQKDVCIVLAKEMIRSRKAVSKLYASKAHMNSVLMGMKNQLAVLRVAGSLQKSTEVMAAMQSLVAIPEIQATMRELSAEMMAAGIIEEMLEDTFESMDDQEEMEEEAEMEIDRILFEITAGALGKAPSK

CHMP3_S75C = molecular target: T3, CHMP3_S75C (human, UniProt Q9Y3E7 9-183, S75C); assay: cross-linking
T3 sequence (looked up): T2 sequence (looked up) with S67C, A104K, A111K, A124K, A128K

CHMP3_V110C = molecular target: T4, CHMP3_V110C (human, UniProt Q9Y3E7 9-183, V110C); assay: cross-linking
T4 sequence (looked up): T2 sequence (looked up) with V102C, A104K, A111K, A124K, A128K

B1: CHMP2AΔC (C-terminally truncated CHMP2A, residues 1-161), MBP removed (domain or fragment, human, UniProt O43633 1-161, looked up)
chain: MDLLFGRRKTPEELLRQNQRALNRAMRELDRERQKLETQEKKIIADIKKMAKQGQMDAVRIMAKDLVRTRRYVRKFVLMRANIQAVSLKIQTLKSNNSMAQAMKGVTKAMGTMNRQLKLPQIQKIMMEFERQAEIMDMKEEMMNDAIDDAMGDEEDEEESD
- binding result (cryo-EM structure): binds
- binding result [1]: binds

B2: CHMP2AΔC (residues 1-161) wild type, MBP fusion as used for tube formation without membrane coating (domain or fragment, human, UniProt O43633 1-161, looked up)
chain: B1 chain
- binding result [2]: binds
- binding result [3]: binds

Further lines, results first:

- binding result (CHMP3_S75C): binds
B3: CHMP2A_D57C (domain or fragment, human, UniProt O43633 9-161, looked up)
chain: KTPEELLRQNQRALNRAMRELDRERQKLETQEKKIIADIKKMAKQGQMCAVRIMAKDLVRTRRYVRKFVLMRANIQAVSLKIQTLKSNNSMAQAMKGVTKAMGTMNRQLKLPQIQKIMMEFERQAEIMDMKEEMMNDAIDDAMGDEEDEEESD

- binding result (CHMP3_V110C): binds
B4: CHMP2A_N18C (domain or fragment, human, UniProt O43633 9-161, looked up)
chain: B3 chain with N10C, C49D
